Test results from IntAct's records for PubMed 22057290.

B1: Ubiquitin carboxyl-terminal hydrolase CYLD (Homo sapiens), Q9NQC7 (parent)
chain: MSSGLWSQEKVTSPYWEERIFYLLLQECSVTDKQTQKLLKVPKGSIGQYIQDRSVGHSRIPSAKGKKNQIGLKILEQPHAVLFVDEKDVVEINEKFTELLLAITNCEERFSLFKNRNRLSKGLQIDVGCPVKVQLRSGEEKFPGVVRFRGPLLAERTVSGIFFGVELLEEGRGQGFTDGVYQGKQLFQCDEDCGVFVALDKLELIEDDDTALESDYAGPGDTMQVELPPLEINSRVSLKVGETIESGTVIFCDVLPGKESLGYFVGVDMDNPIGNWDGRFDGVQLCSFACVESTILLHINDIIPALSESVTQERRPPKLAFMSRGVGDKGSSSHNKPKATGSTSDPGNRNRSELFYTLNGSSVDSQPQSKSKNTWYIDEVAEDPAKSLTEISTDFDRSSPPLQPPPVNSLTTENRFHSLPFSLTKMPNTNGSIGHSPLSLSAQSVMEELNTAPVQESPPLAMPPGNSHGLEVGSLAEVKENPPFYGVIRWIGQPPGLNEVLAGLELEDECAGCTDGTFRGTRYFTCALKKALFVKLKSCRPDSRFASLQPVSNQIERCNSLAFGGYLSEVVEENTPPKMEKEGLEIMIGKKKGIQGHYNSCYLDSTLFCLFAFSSVLDTVLLRPKEKNDVEYYSETQELLRTEIVNPLRIYGYVCATKIMKLRKILEKVEAASGFTSEEKDPEEFLNILFHHILRVEPLLKIRSAGQKVQDCYFYQIFMEKNEKVGVPTIQQLLEWSFINSNLKFAEAPSCLIIQMPRFGKDFKLFKKIFPSLELNITDLLEDTPRQCRICGGLAMYECRECYDDPDISAGKIKQFCKTCNTQVHLHPKRLNHKYNPVSLPKDLPDWDWRHGCIPCQNMELFAVLCIETSHYVAFVKYGKDDSAWLFFDSMADRDGGQNGFNIPQVTPCPEVGEYLKMSLEDLHSLDSRRIQGCARRLLCDAYMCMYQSPTMSLYK

Variants of: B1
Conditions: with itch_human ITCH

Question: Y485A was tested. Which “effect of a mutation on the interaction” value did it give?
Answer: disrupting interaction
